In paper PMC10138300, “Molecular Recognition of Methacryllysine and Crotonyllysine by the AF9 YEATS Domain” (International Journal of Molecular Sciences, 2023):
Starred links: 1 amine or outer side, 2 acyl side, 3 side chain; linkers in the order of their positions; H or OH if unused. Non-standard residues stand in square brackets, D forms with d. No end group written: not given here. Kmea = methacryllysine, C=C(C)C(=O)NCCCC[C@H](N[*:1])C(=O)[*:2]; Kcr = crotonyllysine, C/C=C/C(=O)NCCCC[C@H](N[*:1])C(=O)[*:2]

What was measured:
[1] = biological target: T1, human AF9 YEATS domain (residues 1–138) (Homo sapiens, UniProt P42568); assay: ITC binding assay with AF9 YEATS domain; conditions: MicroCal PEAQ-ITC, 50 mM NaH2PO4, 500 mM NaCl, 2 mM EDTA, 2 mM β-ME, H3 peptides 1.1–2.7 mM titrated into AF9 YEATS 94–205 μM, One Set of Sites model, n = 3, errors as standard error (SE)
T1 construct: containing the cloned AF9 YEATS gene (amino acids 1–138) with an N-terminal 6xHis tag; 6xHis (N); made in house; host or cells: E. coli Rosetta 2(DE3)pLysS
T1 sequence (P42568 1-138): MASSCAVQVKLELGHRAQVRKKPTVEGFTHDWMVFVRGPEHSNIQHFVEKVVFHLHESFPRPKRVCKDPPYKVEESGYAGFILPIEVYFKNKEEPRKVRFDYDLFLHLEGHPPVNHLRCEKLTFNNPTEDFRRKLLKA
Procedure: The plasmid was transformed into Rosetta 2(DE3)pLysS E. coli cells (Novagen, Darmstadt, Germany) by the heat-shock method. Transformed cells were cultivated at 37 °C in TB medium supplemented with 50 μg/mL kanamycin and 35 μg/mL chloramphenicol. The cultivation continued until the culture’s OD600 reached 1.5. Then the culture was cooled down to room temperature (RT), and the protein expression was induced by adding isopropyl β-d-1-thiogalactopyranoside (IPTG) at a final concentration of 0.3 mM. The cultivation was continued for 18 h at RT. After the protein expression was completed, the cells were harvested by centrifuging the culture at 6500 rpm at 4 °C for 15 min. The pellets were then resuspended in cell lysis buffer containing 50 mM Tris, 500 mM NaCl, 30 mM imidazole, at pH 7.4, 1 mM phenylmethylsulfonyl fluoride (PMSF), 2 mM β-mercaptaethanol (β-ME), and 20 μg/mL DNase I. Subsequently, the cells were lysed using the One Shot Cell Disrupter (Constant Systems LTD, Daventry, UK), and the cell debris was settled down by centrifuging the lysate at 19500 rpm at 4 °C for 20 min. […]
ITC experiments were performed using a MicroCal PEAQ-ITC instrument (Malvern Panalytical, Malvern, UK). […] The concentrations of all histone peptides and proteins were measured by UV analysis on a Thermo-Fisher Nanodrop spectrophotometer in buffer using λmax at 215 nm and 280 nm, respectively. […]

[2] = biological target: T2, recombinant human AF9 YEATS domain (residues 1–138) (human, UniProt P42568 1-138); assay: ITC; H3 peptides (1.1–2.7 mM) titrated into AF9 YEATS (94–205 μM), 19 injections; 50 mM NaH2PO4, 500 mM NaCl, 2 mM EDTA, 2 mM β-ME; One Set of Sites model; triplicates; conditions: both partners purified
T2 construct: AF9 (MLLT3), human, YEATS domain, amino acids 1-138, in pET28b(+); Plasmid was a gift from Prof; No step that removes the tag is described; the final SEC product is called 6xHis AF9 YEATS, so the tag was probably still on in ITC; also called 6xHis-AF9 YEATS; source: E. coli Rosetta 2(DE3)pLysS, purified (HisTrap Ni-NTA, Superdex 75 SEC)
T2 sequence (looked up): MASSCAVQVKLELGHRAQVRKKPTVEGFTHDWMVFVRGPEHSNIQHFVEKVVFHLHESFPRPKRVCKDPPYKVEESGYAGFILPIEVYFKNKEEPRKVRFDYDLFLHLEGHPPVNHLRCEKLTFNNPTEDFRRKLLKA

Molecule	N (Stoichiometry) [1]	Kd [2] [µM]	stoichiometry N [2]
C/C=C/C(=O)NCCCC[C@H](NC(=O)[C@H](CCCNC(=N)N)NC(=O)[C@H](C)NC(=O)[C@@H](NC(=O)[C@H](CCC(N)=O)NC(=O)[C@H](CCCCN)NC(=O)[C@@H](N)[C@@H](C)O)[C@@H](C)O)C(=O)N[C@@H](CO)C(=O)N[C@H](C(=O)NCC(=O)NCC(=O)N[C@@H](CCCCN)C(=O)N[C@@H](C)C(N)=O)[C@@H](C)O [H3K9cr]	0.98 ± 0.01		
TKQTAR[Kmea]STGGKA-NH2 (histone H3, residues 3-15; the stretch is the same in H3.1, H3.2 and H3.3; Made on Rink amide resin, so the C-terminus is probably an amide; last residue coupled as N-alpha-Boc amino acid, so the N-terminus is probably free; source: synthetic peptide (Fmoc-SPPS on Rink amide resin, RP-HPLC purified)) [histone H3K9mea peptide (residues 3–15)]		59	1.02
STGGKAPRKQLATKAA (crotonyllysine (Kcr) at K18, histone H3, residues 10-25; the stretch is the same in H3.1, H3.2 and H3.3; Made on Rink amide resin, so the C-terminus is probably an amide; last residue coupled as N-alpha-Boc amino acid, so the N-terminus is probably free; also called H3K18Kcr; source: synthetic peptide (Fmoc-SPPS on Rink amide resin, RP-HPLC purified)) [histone H3K18cr peptide (residues 10–25)]		21	
TKQTAR[Kcr]STGGKA-NH2 (histone H3, residues 3-15; the stretch is the same in H3.1, H3.2 and H3.3; Made on Rink amide resin, so the C-terminus is probably an amide; last residue coupled as N-alpha-Boc amino acid, so the N-terminus is probably free; source: synthetic peptide (Fmoc-SPPS on Rink amide resin, RP-HPLC purified)) [histone H3K9cr peptide (residues 3–15)]		11	0.98
STGGKAPRKQLATKAA (methacryllysine (Kmea) at K18, histone H3, residues 10-25; the stretch is the same in H3.1, H3.2 and H3.3; Made on Rink amide resin, so the C-terminus is probably an amide; last residue coupled as N-alpha-Boc amino acid, so the N-terminus is probably free; source: synthetic peptide (Fmoc-SPPS on Rink amide resin, RP-HPLC purified)) [histone H3K18mea peptide (residues 10–25)]		114	
